For data set [1], the system named is CbAgo (Clostridium butyricum). Nature of the data set: cleavage_in_vitro. Conditions: 5'-phosphate.
Data set [2] has as its target T1, RecC protein (wild type, N-terminal 6xHis tag), P07648.
T1 chain: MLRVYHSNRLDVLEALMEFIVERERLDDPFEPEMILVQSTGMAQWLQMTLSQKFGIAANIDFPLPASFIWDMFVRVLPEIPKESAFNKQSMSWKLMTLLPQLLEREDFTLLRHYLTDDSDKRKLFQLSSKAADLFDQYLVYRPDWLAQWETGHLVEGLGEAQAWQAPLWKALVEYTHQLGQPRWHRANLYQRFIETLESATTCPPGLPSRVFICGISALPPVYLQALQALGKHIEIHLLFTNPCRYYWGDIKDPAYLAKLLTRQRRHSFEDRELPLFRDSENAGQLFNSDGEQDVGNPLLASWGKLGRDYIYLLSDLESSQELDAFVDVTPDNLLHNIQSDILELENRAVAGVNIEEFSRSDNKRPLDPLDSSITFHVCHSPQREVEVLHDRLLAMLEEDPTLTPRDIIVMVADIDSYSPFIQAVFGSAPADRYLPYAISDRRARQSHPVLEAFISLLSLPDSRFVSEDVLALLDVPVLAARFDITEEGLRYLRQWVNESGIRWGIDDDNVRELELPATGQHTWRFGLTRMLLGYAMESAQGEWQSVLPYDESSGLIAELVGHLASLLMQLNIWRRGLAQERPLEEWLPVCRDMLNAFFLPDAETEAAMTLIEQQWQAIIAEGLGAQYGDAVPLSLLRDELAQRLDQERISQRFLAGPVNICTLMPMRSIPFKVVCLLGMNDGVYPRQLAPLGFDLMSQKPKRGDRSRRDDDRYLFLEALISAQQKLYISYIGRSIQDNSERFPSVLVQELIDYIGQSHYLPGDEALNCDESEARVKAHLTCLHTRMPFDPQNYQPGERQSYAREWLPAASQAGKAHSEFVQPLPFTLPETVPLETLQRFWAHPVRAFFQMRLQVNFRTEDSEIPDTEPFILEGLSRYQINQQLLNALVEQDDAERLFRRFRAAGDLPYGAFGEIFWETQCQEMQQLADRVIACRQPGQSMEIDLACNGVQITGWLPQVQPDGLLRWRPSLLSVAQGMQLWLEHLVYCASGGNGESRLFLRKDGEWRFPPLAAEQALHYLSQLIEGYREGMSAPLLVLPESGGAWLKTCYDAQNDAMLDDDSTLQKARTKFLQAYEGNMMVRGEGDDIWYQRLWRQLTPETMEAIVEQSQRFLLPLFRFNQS

In data set [1] (16 min, 37 C), “AGTGCTGAGGTTGACTTAGTT / GTTTGCTGATGAACTAAGTCAACCTCAGCATCAACCTTGCGAGTCATTTCTTT [T2-A1 ; ss-phiX174]” came in with an activity of 35 % cleaved.

Regarding “CGCAAGGTTAGTGCTGAGGTT / GTTTGCTGATGAACTAAGTCAACCTCAGCATCAACCTTGCGAGTCATTTCTTT [T1-C1 ; ss-phiX174]”, the activity in data set [1] (16 min, 37 C) stood at 50 % cleaved.

As for “GTGCTGAGGTTGACTTAGTTC / GTTTGCTGATGAACTAAGTCAACCTCAGCATCAACCTTGCGAGTCATTTCTTT [T2-G1 ; ss-phiX174]”, the activity in data set [1] (4 min, 37 C) came to 80 % cleaved.

The molecule “TCGCAAGGTTAGTGCTGAGGT / GTTTGCTGATGAACTAAGTCAACCTCAGCATCAACCTTGCGAGTCATTTCTTT [T1 ; ss-phiX174]” displayed an activity in data set [1] (4 min, 37 C) of 74 % cleaved.

Molecule “TGACTGCGATCCTGCAT / GCTAGATAGATTGACAGATTACTCAAGCAGGCATGCAGGATCGCAGTCAGATTTATGTGTCATATAGTACGTGATTCAAG / CTTGAATCACGTACTATATGACACATAAATCTGACTGCGATCCTGCATGCCTGCTTGAGTAATCTGTCAATCTATCTAGC [B12 ; 80 bp blunt substrate]” returned an activity in data set [1] (with RecdeltaB-C helicase, 15 min, 2-fold more with added CbuRecQ) of 25 % cleaved.

B1: RecB^exo- (full-length nuclease deficient RecB DNA helicase variant, E1020A/D1080A/K1082A, N-terminal 6xHis tag) (protein)
chain: MSDVAETLDPLRLPLQGERLIEASAGTGKTFTIAALYLRLLLGLGGSAAFPRPLTVEELLVVTFTEAATAELRGRIRSNIHELRIACLRETTDNPLYERLLEEIDDKAQAAQWLLLAERQMDEAAVFTIHGFCQRMLNLNAFESGMLFEQQLIEDESLLRYQACADFWRRHCYPLPREIAQVVFETWKGPQALLRDINRYLQGEAPVIKAPPPDDETLASRHAQIVARIDTVKQQWRDAVGELDALIESSGIDRRKFNRSNQAKWIDKISAWAEEETNSYQLPESLEKFSQRFLEDRTKAGGETPRHPLFEAIDQLLAEPLSIRDLVITRALAEIRETVAREKRRRGELGFDDMLSRLDSALRSESGEVLAAAIRTRFPVAMIDEFQDTDPQQYRIFRRIWHHQPETALLLIGDPKQAIYAFRGADIFTYMKARSEVHAHYTLDTNWRSAPGMVNSVNKLFSQTDDAFMFREIPFIPVKSAGKNQALRFVFKGETQPAMKMWLMEGESCGVGDYQSTMAQVCAAQIRDWLQAGQRGEALLMNGDDARPVRASDISVLVRSRQEAAQVRDALTLLEIPSVYLSNRDSVFETLEAQEMLWLLQAVMTPERENTLRSALATSMMGLNALDIETLNNDEHAWDVVVEEFDGYRQIWRKRGVMPMLRALMSARNIAENLLATAGGERRLTDILHISELLQEAGTQLESEHALVRWLSQHILEPDSNASSQQMRLESDKHLVQIVTIHKSKGLEYPLVWLPFITNFRVQEQAFYHDRHSFEAVLDLNAAPESVDLAEAERLAEDLRLLYVALTRSVWHCSLGVAPLVRRRGDKKGDTDVHQSALGRLLQKGEPQDAAGLRTCIEALCDDDIAWQTAQTGDNQPWQVNDVSTAELNAKTLQRLPGDNWRVTSYSGLQQRGHGIAQDLMPRLDVDAAGVASVVEEPTLTPHQFPRGASPGTFLHSLFEDLDFTQPVDPNWVREKLELGGFESQWEPVLTEWITAVLQAPLNETGVSLSQLSARNKQVAMEFYLPISEPLIASQLDTLIRQFDPLSAGCPPLEFMQVRGMLKGFIDLVFRHEGRYYLLAYASNWLGEDSSAYTQQAMAAAMQAHRYDLQYQLYTLALHRYLRHRIADYDYEHHFGGVIYLFLRGVDKEHPQQGIYTTRPNAGLIALMDEMFAGMTLEEA
With B1, in data set [2], the “DNA unwinding activity (DpnI-based helicase assay, capillary electrophoresis)” value was “RecB^exo- alone is a weak DNA helicase, but its unwinding activity significantly increases after interaction with RecC protein”.

Source of the values: patent publication US20220380738.
